Assay results as given in PMC5563082, “Structural Mechanism for Modulation of Synaptic Neuroligin-Neurexin Signaling by MDGA Proteins” (Neuron, 2017).

T1: human MDGA1 extracellular domain (MDGA1_(ECTO); Gln19-Lys925) (human, UniProt Q8NFP4-1 19-925)
T1 construct: human MAM domain-containing glycosylphosphatidylinositol anchor protein 1, Gln19-Lys925; Not deglycosylated; also called human MDGA1_(ECTO); source: HEK293T, transient transfection, purified (IMAC, SEC)
T1 sequence (looked up): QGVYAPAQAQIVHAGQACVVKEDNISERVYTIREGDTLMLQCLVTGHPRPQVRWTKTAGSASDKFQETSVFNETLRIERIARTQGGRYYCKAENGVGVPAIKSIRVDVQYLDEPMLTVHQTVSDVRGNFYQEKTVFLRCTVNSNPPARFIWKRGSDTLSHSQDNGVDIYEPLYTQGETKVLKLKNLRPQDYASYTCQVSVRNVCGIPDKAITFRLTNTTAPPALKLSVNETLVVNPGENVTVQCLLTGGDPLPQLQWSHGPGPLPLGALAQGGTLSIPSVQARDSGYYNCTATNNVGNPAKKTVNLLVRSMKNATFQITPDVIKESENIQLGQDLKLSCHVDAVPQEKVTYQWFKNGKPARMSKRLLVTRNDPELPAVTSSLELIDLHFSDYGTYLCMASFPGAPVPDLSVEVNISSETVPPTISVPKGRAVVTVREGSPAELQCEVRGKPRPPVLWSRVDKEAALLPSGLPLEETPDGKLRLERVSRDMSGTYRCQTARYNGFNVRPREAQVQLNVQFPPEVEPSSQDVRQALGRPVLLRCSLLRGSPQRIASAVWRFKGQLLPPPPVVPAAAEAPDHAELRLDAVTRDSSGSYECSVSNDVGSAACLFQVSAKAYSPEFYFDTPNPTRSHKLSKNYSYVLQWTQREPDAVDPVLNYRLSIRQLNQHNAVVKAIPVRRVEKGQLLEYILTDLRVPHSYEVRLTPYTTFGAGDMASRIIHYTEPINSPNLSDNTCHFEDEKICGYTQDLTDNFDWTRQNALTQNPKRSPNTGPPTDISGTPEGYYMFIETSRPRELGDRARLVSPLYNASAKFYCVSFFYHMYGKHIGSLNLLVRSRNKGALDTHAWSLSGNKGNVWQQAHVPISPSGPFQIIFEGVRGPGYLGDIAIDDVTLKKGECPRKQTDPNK

T2: human MDGA2 extracellular domain (MDGA2_(ECTO); Gln21-Lys927) (human, UniProt Q7Z553 21-927)
T2 construct: human MAM domain-containing glycosylphosphatidylinositol anchor protein 2, Gln21-Lys927; Not deglycosylated; source: HEK293T, transient transfection, purified (IMAC, SEC)
T2 sequence (looked up): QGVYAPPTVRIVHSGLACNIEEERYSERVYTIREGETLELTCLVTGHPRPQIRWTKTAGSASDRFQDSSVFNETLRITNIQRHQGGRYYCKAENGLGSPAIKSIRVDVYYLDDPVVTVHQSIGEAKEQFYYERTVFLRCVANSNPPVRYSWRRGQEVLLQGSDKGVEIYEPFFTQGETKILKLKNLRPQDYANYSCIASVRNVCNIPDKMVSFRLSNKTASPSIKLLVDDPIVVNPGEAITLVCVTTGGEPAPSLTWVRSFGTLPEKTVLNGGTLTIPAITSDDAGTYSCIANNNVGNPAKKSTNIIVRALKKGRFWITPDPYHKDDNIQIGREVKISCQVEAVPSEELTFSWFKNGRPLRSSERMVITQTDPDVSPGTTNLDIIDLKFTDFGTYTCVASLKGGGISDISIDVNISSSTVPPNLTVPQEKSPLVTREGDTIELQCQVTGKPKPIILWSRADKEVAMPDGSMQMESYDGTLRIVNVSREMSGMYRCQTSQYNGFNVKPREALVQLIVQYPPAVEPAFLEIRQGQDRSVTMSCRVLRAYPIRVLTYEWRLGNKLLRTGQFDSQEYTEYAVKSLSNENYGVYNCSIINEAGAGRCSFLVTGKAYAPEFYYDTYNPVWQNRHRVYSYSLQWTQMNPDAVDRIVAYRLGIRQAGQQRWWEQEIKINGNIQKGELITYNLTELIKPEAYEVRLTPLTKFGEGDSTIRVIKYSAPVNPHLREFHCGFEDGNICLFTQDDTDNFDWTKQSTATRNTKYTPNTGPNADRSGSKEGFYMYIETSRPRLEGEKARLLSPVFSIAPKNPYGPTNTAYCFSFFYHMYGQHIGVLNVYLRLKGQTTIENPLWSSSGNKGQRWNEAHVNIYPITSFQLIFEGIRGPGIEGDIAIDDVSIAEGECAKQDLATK


Columns and labels:
[1] = molecular target: T1, human MDGA1 extracellular domain …; assay: SPR; biotinylated NL_(ECTO)-Avitag variants captured from dialysed conditioned medium on streptavidin CM5 chip (500 RU; 550 RU for the ΔSite series; 1000 RU for NL3 and NL3 Arg451Cys in the R451C series); β-NRX1_(LNS6)(±4), MDGA1_(ECTO), MDGA2_(ECTO) injected, 15 concentrations, two-fold series from 50 μM; TBS-CTB (10 mM Tris pH 7.4, 150 mM NaCl, 3 mM CaCl2, 0.005% Tween-20, 1.0 g/L BSA); equilibrium analysis, 1:1 …; conditions: both partners purified
[2] = molecular target: T2, human MDGA2 extracellular domain …; assay: as above; conditions: both partners purified

Row | binding result [1] | binding result [2] | Binder
1 | binds | binds | human NL3(+A1+A2)_(ECTO), immobilised for SPR (domain or fragment, UniProt Q9NZ94-1 38-636, looked up, biotin on the Avitag (in vivo biotinylation by BirA), source: HEK293T, co-transfected with ER-resident BirA; dialysed conditioned medium, captured on streptavidin chip) QAPAPTVNTHFGKLRGARVPLPSEILGPVDQYLGVPYAAPPIGEKRFLPPEPPPSWSGIRNATHFPPVCPQNIHTAVPEVMLPVWFTANLDIVATYIQEPNEDCLYLNVYVPTEDVKRISKECARKPNKKICRKGGSGAKKQGEDLADNDGDEDEDIRDSGAKPVMVYIHGGSYMEGTGNMIDGSILASYGNVIVITLNYRVGVLGFLSTGDQAAKGNYGLLDQIQALRWVSENIAFFGGDPRRITVFGSGIGASCVSLLTLSHHSEGLFQRAIIQSGSALSSWAVNYQPVKYTSLLADKVGCNVLDTVDMVDCLRQKSAKELVEQDIQPARYHVAFGPVIDGDVIPDDPEILMEQGEFLNYDIMLGVNQGEGLKFVEGVVDPEDGVSGTDFDYSVSNFVDNLYGYPEGKDTLRETIKFMYTDWADRDNPETRRKTLVALFTDHQWVEPSVVTADLHARYGSPTYFYAFYHHCQSLMKPAWSDAAHGDEVPYVFGVPMVGPTDLFPCNFSKNDVMLSAVVMTYWTNFAKTGDPNKPVPQDTKFIHTKANRFEEVAWSKYNPRDQLYLHIGLKPRVRDHYRATKVAFWKHLVPHLYNLHD
2 | binds | binds | human NL3(+A2)_(ECTO), immobilised for SPR (domain or fragment, UniProt Q9NZ94-1 38-636, looked up, biotin on the Avitag (in vivo biotinylation by BirA), source: HEK293T, co-transfected with ER-resident BirA; dialysed conditioned medium, captured on streptavidin chip) QAPAPTVNTHFGKLRGARVPLPSEILGPVDQYLGVPYAAPPIGEKRFLPPEPPPSWSGIRNATHFPPVCPQNIHTAVPEVMLPVWFTANLDIVATYIQEPNEDCLYLNVYVPTEDGSGAKKQGEDLADNDGDEDEDIRDSGAKPVMVYIHGGSYMEGTGNMIDGSILASYGNVIVITLNYRVGVLGFLSTGDQAAKGNYGLLDQIQALRWVSENIAFFGGDPRRITVFGSGIGASCVSLLTLSHHSEGLFQRAIIQSGSALSSWAVNYQPVKYTSLLADKVGCNVLDTVDMVDCLRQKSAKELVEQDIQPARYHVAFGPVIDGDVIPDDPEILMEQGEFLNYDIMLGVNQGEGLKFVEGVVDPEDGVSGTDFDYSVSNFVDNLYGYPEGKDTLRETIKFMYTDWADRDNPETRRKTLVALFTDHQWVEPSVVTADLHARYGSPTYFYAFYHHCQSLMKPAWSDAAHGDEVPYVFGVPMVGPTDLFPCNFSKNDVMLSAVVMTYWTNFAKTGDPNKPVPQDTKFIHTKANRFEEVAWSKYNPRDQLYLHIGLKPRVRDHYRATKVAFWKHLVPHLYNLHD
